Data on 40 molecules can be found in patent publication US20040106105A1 (published 2004).

Positions count from the first letter of the chain named. Numbers in names are those of the source. Where “and” joins values, the source holds several entries; their conditions need not be identical. Identical values can stand only once.

To fix the notation:
B1: Fab S20 (Fab, V domains shown)
VH: LESGGGVVQPGRSLRLSCSASGFSFRDYAMHWVRQAPGKGLEWVAFIWFDGSNERYADSVKGRFTITRDNPKNTLYLQMNSLRVEDTAVYYCVRRGGSILTGFHLDYWGQGTLVTVSS
VL: ELTQSPSSLSASVGDRVTITCRASQGIRDDLGWYQQKPGKAPKRLIYAASNLQSGVPSRFSGGGSGTEFTLTISSLQPEDFATYYCLQHNSYPLTFGGGTKVEIKR
B2: Fab S20 HCDR3 mutant Arg95Gly (Fab, V domains shown)
VH: B1 VH with R95G
VL: B1 VL
notes: See note of m21
B3: Fab S8 HCDR3 mutant Arg95Asp (Fab, V domains shown)
VH: B1 VH with V7L, Q9K, R12G, S19A, S24T, R26S, D27S, R95D
VL: B1 VL
B4: Fab S8 (Fab, V domains shown)
VH: B1 VH with V7L, Q9K, R12G, S19A, S24T, R26S, D27S
VL: B1 VL
B5: Fab S8 HCDR3 mutant Arg95Gly (Fab, V domains shown)
VH: B1 VH with V7L, Q9K, R12G, S19A, S24T, R26S, D27S, R95G
VL: B1 VL
B6: Fab S20 HCDR3 mutant Arg95Asp (Fab, V domains shown)
VH: B1 VH with R95D
VL: B1 VL
notes: The text names only S2095K for S20
B7: Fab S8 HCDR3 mutant Arg95Pro (Fab, V domains shown)
VH: B1 VH with V7L, Q9K, R12G, S19A, S24T, R26S, D27S, R95P
VL: B1 VL
B8: Fab S20 HCDR3 mutant Arg95Pro (Fab, V domains shown)
VH: B1 VH with R95P
VL: B1 VL
notes: See note of m21

Experiment [1] deals with B4. Put plainly: phage display panning on coated Fab S8, round 2, 12-mer library, 1 clone; clone not tested singly.
Experiment [2] concerns the target B4. In words: phage display panning on coated Fab S8, round 1, 12-mer library, 1 clone; clone not tested singly.
The target in experiment [3] is B4. Put plainly: phage display panning on coated Fab S8, round 4, 12-mer library, 1 clone; clone not tested singly.
Experiment [4] deals with B4. Put plainly: phage display panning on coated Fab S8, round 3, 12-mer library, 1 clone; clone not tested singly.
The target in experiment [5] is gp120 of HIV-1 MN strain (HIV-1 MN, UniProt P05877 32-513). Put plainly: cell-based or functional assay.
The target in experiment [6] is T1, recombinant gp120 III-B (HIV-1 III-B, UniProt P04578 33-511).
T1 construct: domain: gp120; also called gp120 III-B (LAI); HIV-1 gp120
Put plainly: ELISA on gp120 III-B.
Procedure: Soluble Fabs from each resulting HC/LC pair were tested for binding to gp120 Ill-B and BSA in ELISA a s above. […] Soluble Fabs from each mutant were tested for binding to gp120 III-B and BSA in ELISA as above.

The target of experiment [7] is gp120 of HIV-1 RF strain (HIV-1 RF, UniProt P04579 32-519). Put plainly: cell-based or functional assay.
The target in experiment [8] is gp120 of HIV-1 SF-2 strain (HIV-1 SF-2, UniProt P03378 32-509). Put plainly: cell-based or functional assay.
Experiment [9] has as its target B4. In words: phage display panning on coated Fab S8, round 4, 7-mer library Ph.D.-C7, 2 clones; clone not tested singly.

With TTGDHRAFWLGG [peptide of phage clone 2r9], the binding result in experiment [1] was “binds”.

Turning to SSCAAFWSKARP [peptide of phage clone 1r7], the binding result in [2] is “binds”.

With ADVMLHSKHVQM [peptide of phage clone 4r15], the binding result in [3] is recorded as “binds”.

For HTRVLPSTAMTL [peptide of phage clone 1r9], in experiment [2], the binding result is recorded as “binds”.

In the case of HDEFVWISIWEP [peptide of phage clone 1r5], the binding result in experiment [2] is listed as “binds”.

On to SAKPSYQPYAQP [peptide of phage clone 3r1], for which the binding result in [4] is listed as “binds”.

With MPNPRQNPPPPL [peptide of phage clone 2r4], in experiment [1], the binding result is “binds”.

Consider SGLDGMHVNSPW [peptide of phage clone 1r1], for which the binding result in [2] was “binds”.

HIETLLPAPELS [peptide of phage clone 3r3]: the binding result in [4] is reported as “binds”.

With WTTNFADPPSST [peptide of phage clone 1r6], in [2], the binding result is “binds”.

As for SVSPNMRMLHWW [peptide of phage clone 2r7], the binding result in [1] is reported as “binds”.

Take TAMNLGPALFRT [peptide of phage clone 4r3]: the binding result in [3] is “binds”.

Consider HGHPLKTNTHRS [peptide of phage clone 2r3], for which, in experiment [1], the binding result is recorded as “binds”.

As for QPTTPFFDWDTH [peptide of phage clone 3r6], the binding result in experiment [4] is recorded as “binds”.

As for MQSQLYRDSPRG [peptide of phage clone 3r9], in experiment [4], the binding result was “binds”.

Turning to QVMRMMPNGVYC [peptide of phage clone 1r3], the binding result in [2] is reported as “binds”.

Turning to FYTPTMHSYGIQ [peptide of phage clone 2r6], in experiment [1], the binding result was “binds”.

For LFQKQIESPWRS [peptide of phage clone 1r10], the binding result in experiment [2] is reported as “binds”.

FPASMPGLLLRV [peptide of phage clone 1r2]: the binding result in experiment [2] is on record as “binds”.

As for HASTPSSPWSRP [peptide of phage clone 3r7], in experiment [4], the binding result is “binds”.

For the molecule SASTPSSPWSRP [peptide of phage clone 4r17], the binding result in [3] is reported as “binds”.

As to TMQPYKSWWSSK [peptide of phage clone 4r10], the binding result in experiment [3] is given as “binds”.

On to B1, for which, in [5], the “% neutralisation, neutralisation plaque assay (NPA) in MT-4 cells” value is 90 % neutralisation at 20 µg/ml.

As for B2, in experiment [6], the binding result is listed as “no binding”.

Regarding B3, in experiment [6], the binding result is recorded as “no binding”.

Take B4: the “% neutralisation, infectivity reduction assay (IRA) in MT-2 cells” value in experiment [7] was 50 % neutralisation at 1 µg/ml and > 90 % neutralisation at 10 µg/ml; in experiment [8] it was 50 % neutralisation at 1 µg/ml and > 90 % neutralisation at 10 µg/ml; in experiment [5], 50 % neutralisation at 1 µg/ml and > 90 % neutralisation at 10 µg/ml. In addition, the “% neutralisation, neutralisation plaque assay (NPA) in MT-4 cells” value in [5] is 90 % neutralisation at 20 µg/ml.

As to B5, the binding result in experiment [6] is given as “no binding”.

On to B6, for which the binding result in [6] is reported as “no binding”.

Turning to B7, the binding result in experiment [6] is given as “no binding”.

Turning to B8, in experiment [6], the binding result is reported as “no binding”.

For WFKPPQTPLTLM [peptide of phage clone 4r5], the binding result in experiment [3] is recorded as “binds”.

As to GTTQNAMSLARL [peptide of phage clone 3r5], the binding result in experiment [4] is reported as “binds”.

In the case of NFQTPDRTQSNL [peptide of phage clone 2r5], in [1], the binding result is recorded as “binds”.

Take HTKCSDASCPLI [peptide of phage clone 2r1]: the binding result in [1] was “binds”.

In the case of LPNATKLAPISP [peptide of phage clone 3r10], in experiment [4], the binding result was “binds”.

As for KAPIPSSIPGFR [peptide of phage clone 3r4], in experiment [4], the binding result is reported as “binds”.

On to SAMEAPP (also called 4c7) [peptide of phage clone c72R4], for which the binding result in [9] is given as “binds”.

On to QDRALITPLDQT [peptide of phage clone 1r4], for which the binding result in experiment [2] is “binds”.

Regarding CLSSNSSPPPRP [peptide of phage clone 1r8], the binding result in experiment [2] is on record as “binds”.

For NYFQQPPERHSS [peptide of phage clone 2r10], in [1], the binding result was “binds”.
